Reference: patent publication US20230062122A1 (VALO THERAPEUTICS, published 2023)

T1: MHC-I molecule (H-2K^b) on C57BL/6 splenocytes (mouse, UniProt P01887 21-119; P01901 22-369)
T1 sequence (MHC heavy): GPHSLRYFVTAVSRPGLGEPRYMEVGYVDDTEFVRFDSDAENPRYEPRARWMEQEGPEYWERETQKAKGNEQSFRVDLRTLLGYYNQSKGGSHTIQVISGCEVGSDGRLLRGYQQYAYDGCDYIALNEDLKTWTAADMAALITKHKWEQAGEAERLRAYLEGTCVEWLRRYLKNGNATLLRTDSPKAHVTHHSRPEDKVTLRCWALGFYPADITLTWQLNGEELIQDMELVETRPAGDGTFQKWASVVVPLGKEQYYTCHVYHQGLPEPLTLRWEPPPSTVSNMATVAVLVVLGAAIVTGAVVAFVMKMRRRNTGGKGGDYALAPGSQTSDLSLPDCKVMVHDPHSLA
T1 sequence (b2m): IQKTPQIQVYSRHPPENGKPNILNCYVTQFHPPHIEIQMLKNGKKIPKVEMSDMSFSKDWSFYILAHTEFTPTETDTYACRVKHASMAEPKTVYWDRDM

B1: SIINFEKL-polyK (peptide)
peptide: SIINFEKLKKKKKK
B2: polyK-SIINFEKL (peptide)
peptide: KKKKKKSIINFEKL
B3: SIINFEKL-AHX-polyK (peptide)
peptide: SIINFEKLKKKKKK
modifications: amino caproic acid (AHX) residue between SIINFEKL and polyK

Key:
[1] = biological target: SIINFEKL on MHC-I (H-2K^b) on C57BL/6 splenocytes (mouse; chicken); assay: flow cytometry, C57BL/6 splenocytes pulsed 2 h with SIINFEKL and stained with the APC antibody
[2] = biological target: T1, MHC-I molecule (H-2K^b) on C57BL/6 …; assay: cell-based or functional assay

Molecule	% of splenocytes positive [1]	proportion of splenocytes cross-presenting SIINFEKL on MHC-I (flow cytometry with anti-H-2K^b bound to SIINFEKL) [2]
APC anti-mouse H-2K^b bound to SIINFEKL (BioLegend) (antibody)	98.5%	–
B1	–	27.1%
B2	–	94.5%
B3	–	1.36%
